B1: EGF: reference compound, Epidermal Growth Factor assay (protein, UniProt P01133 23-1207, looked up)
Pro-epidermal growth factor: PQHWSCPEGTLAGNGNSTCVGPAPFLIFSHGNSIFRIDTEGTNYEQLVVDAGVSVIMDFHYNEKRIYWVDLERQLLQRVFLNGSRQERVCNIEKNVSGMAINWINEEVIWSNQQEGIITVTDMKGNNSHILLSALKYPANVAVDPVERFIFWSSEVAGSLYRADLDGVGVKALLETSEKITAVSLDVLDKRLFWIQYNREGSNSLICSCDYDGGSVHISKHPTQHNLFAMSLFGDRIFYSTWKMKTIWIANKHTGKDMVRINLHSSFVPLGELKVVHPLAQPKAEDDTWEPEQKLCKLRKGNCSSTVCGQDLQSHLCMCAEGYALSRDRKYCEDVNECAFWNHGCTLGCKNTPGSYYCTCPVGFVLLPDGKRCHQLVSCPRNVSECSHDCVLTSEGPLCFCPEGSVLERDGKTCSGCSSPDNGGCSQLCVPLSPVSWECDCFPGYDLQLDEKSCAASGPQPFLLFANSQDIRHMHFDGTDYGTLLSQQMGMVYALDHDPVENKIYFAHTALKWIERANMDGSQRERLIEEGVDVPEGLAVDWIGRRFYWTDRGKSLIGRSDLNGKRSKIITKENISQPRGIAVHPMAKRLFWTDTGINPRIESSSLQGLGRLVIASSDLIWPSGITIDFLTDKLYWCDAKQSVIEMANLDGSKRRRLTQNDVGHPFAVAVFEDYVWFSDWAMPSVMRVNKRTGKDRVRLQGSMLKPSSLVVVHPLAKPGADPCLYQNGGCEHICKKRLGTAWCSCREGFMKASDGKTCLALDGHQLLAGGEVDLKNQVTPLDILSKTRVSEDNITESQHMLVAEIMVSDQDDCAPVGCSMYARCISEGEDATCQCLKGFAGDGKLCSDIDECEMGVPVCPPASSKCINTEGGYVCRCSEGYQGDGIHCLDIDECQLGEHSCGENASCTNTEGGYTCMCAGRLSEPGLICPDSTPPPHLREDDHHYSVRNSDSECPLSHDGYCLHDGVCMYIEALDKYACNCVVGYIGERCQYRDLKWWELRHAGHGQQQKVIVVAVCVVVLVMLLLLSLWGAHYYRTQKLLSKNPKNPYEESSRDVRSRRPADTEDGMSSCPQPWFVVIKEHQDLKNGGQPVAGEDGQAADGSMQPTSWRQEPQLCGMGTEQGCWIPVSSDKGSCPQVMERSFHMPSYGTQTLEGGVEKPHSLLSANPLWQQRALDPPHQMELTQ
modifications: Pro-epidermal growth factor
B2: rC5a, Human: reference compound, Complement C5a assay (protein, UniProt P01031 678-751, looked up)
C5a anaphylatoxin: TLQKKIEEIAAKYKHSVVKKCCYDGACVNNDETCEQRAARISLGPRCIKAFTECCVVASQLRANISHKDMQLGR
modifications: C5a anaphylatoxin

How the values were obtained:
[1] = target: Epidermal Growth Factor, EGF; test: Epidermal Growth Factor, EGF; [125I]EGF; format: binding; details: reference compound, QA/QC; read-out: Ref Kj
[2] = target: Complement C5a (Homo sapiens, UniProt P21730); test: Complement C5a (Human); [125I]BH-rC5a; format: binding; details: reference compound, QA/QC; read-out: Ref Kj
Chain of Complement C5a (P21730 whole entry): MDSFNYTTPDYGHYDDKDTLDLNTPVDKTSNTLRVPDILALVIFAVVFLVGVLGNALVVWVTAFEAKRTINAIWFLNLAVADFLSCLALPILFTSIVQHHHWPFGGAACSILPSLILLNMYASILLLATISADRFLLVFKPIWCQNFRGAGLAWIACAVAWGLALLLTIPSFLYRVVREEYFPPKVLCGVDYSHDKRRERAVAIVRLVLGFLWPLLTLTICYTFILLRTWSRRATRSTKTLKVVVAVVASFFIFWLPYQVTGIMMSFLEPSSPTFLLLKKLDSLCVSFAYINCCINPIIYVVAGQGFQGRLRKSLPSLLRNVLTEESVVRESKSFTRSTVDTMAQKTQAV

Row | Molecule | Ki [1] | Ki [2]
1 | B1 | 3.2 nM | –
2 | B2 | – | 0.619 nM

From patent US20020187514A1 (priority 1999, published 2002)
